Experiment [1] deals with Munc13L with C-terminal Halo tag (Munc13-1 residues 529-1735, C1-C2B-MUN-C2C domains, residues 1408-1452 replaced by EF) (UniProt Q62768). In words: two-colour step-bleaching of co-clusters on a supported lipid bilayer.
For experiment [2] the target is unchanged. Briefly: two-colour TIRF co-localisation on a supported lipid bilayer.

In experiment [1], “single-cysteine (S28C) version of SNAP25^WT labeled with AlexaFluor555 (from UniProt P60879 1-206) (natural protein)” returned a stoichiometry N (mole SNAP25/mole Munc13L) of 0.8. In experiment [2], this substance returned a Manders' coefficient (SNAP25:Munc13L) at 50 nM Munc13L of 0.2, a Manders' coefficient (SNAP25:Munc13L) at 1 μM Munc13L of 0.6 and a Manders' coefficient at 1 μM Munc13L of 0.7.
